Assays:
[1] = biological target: mouse NKP46 (NCR1) protein, NP_034876.2 (mouse) (UniProt Q8C567); experiment: flow cytometry, peripheral blood NK cells of C57BL/6 wild-type mouse
[2] = biological target: humanized NKP46 protein (engineered mouse NKP46 after humanization) (human/mouse chimera (human NKP46 amino acids 2-253 replacing mouse 2-253; rest mouse)); experiment: flow cytometry, peripheral blood NK cells of NKP46 humanized homozygous mouse
[3] = biological target: humanized NKP46 protein (engineered mouse NKP46 after humanization) (human/mouse chimera (human NKP46 amino acids 2-253 replacing mouse 2-253; rest mouse)); experiment: flow cytometry, spleen NK cells of NKP46 humanized homozygous mouse
[4] = biological target: mouse NKP46 (NCR1) protein, NP_034876.2 (mouse) (UniProt Q8C567); experiment: flow cytometry, peripheral blood NK cells of NKP46 humanized heterozygous mouse (cells carry mouse and humanized NKP46)
[5] = biological target: mouse NKP46 (NCR1) protein, NP_034876.2 (mouse) (UniProt Q8C567); experiment: flow cytometry, spleen NK cells of NKP46 humanized heterozygous mouse (cells carry mouse and humanized NKP46)
[6] = biological target: mouse NKP46 (NCR1) protein, NP_034876.2 (mouse) (UniProt Q8C567); experiment: flow cytometry, peripheral blood NK cells of C57BL/6 wild-type mouse; remark: listed apart in the source
[7] = biological target: mouse NKP46 (NCR1) protein, NP_034876.2 (mouse) (UniProt Q8C567); experiment: flow cytometry, spleen NK cells of C57BL/6 wild-type mouse
[8] = biological target: mouse NKP46 (NCR1) protein, NP_034876.2 (mouse) (UniProt Q8C567); experiment: as above; remark: listed apart in the source
[9] = biological target: humanized NKP46 protein (engineered mouse NKP46 after humanization) (human/mouse chimera (human NKP46 amino acids 2-253 replacing mouse 2-253; rest mouse)); experiment: flow cytometry, peripheral blood NK cells of NKP46 humanized heterozygous mouse
[10] = biological target: humanized NKP46 protein (engineered mouse NKP46 after humanization) (human/mouse chimera (human NKP46 amino acids 2-253 replacing mouse 2-253; rest mouse)); experiment: flow cytometry, spleen NK cells of NKP46 humanized heterozygous mouse

Sequence of UniProt Q8C567 (Q8C567 17-325 R131Q): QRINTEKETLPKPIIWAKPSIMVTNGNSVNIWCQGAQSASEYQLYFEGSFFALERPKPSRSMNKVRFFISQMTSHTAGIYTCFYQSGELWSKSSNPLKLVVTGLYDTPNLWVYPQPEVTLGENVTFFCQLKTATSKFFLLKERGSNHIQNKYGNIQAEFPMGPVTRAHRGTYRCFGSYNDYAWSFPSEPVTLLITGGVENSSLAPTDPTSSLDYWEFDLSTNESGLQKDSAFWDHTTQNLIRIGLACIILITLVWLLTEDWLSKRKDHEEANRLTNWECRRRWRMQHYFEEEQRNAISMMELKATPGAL
Sequence of humanized NKP46 protein (engineered mouse NKP46 after humanization) (human/mouse chimera (human NKP46 amino acids 2-253 replacing mouse 2-253; rest mouse)) (chain, as listed by the source mutant limits assumed): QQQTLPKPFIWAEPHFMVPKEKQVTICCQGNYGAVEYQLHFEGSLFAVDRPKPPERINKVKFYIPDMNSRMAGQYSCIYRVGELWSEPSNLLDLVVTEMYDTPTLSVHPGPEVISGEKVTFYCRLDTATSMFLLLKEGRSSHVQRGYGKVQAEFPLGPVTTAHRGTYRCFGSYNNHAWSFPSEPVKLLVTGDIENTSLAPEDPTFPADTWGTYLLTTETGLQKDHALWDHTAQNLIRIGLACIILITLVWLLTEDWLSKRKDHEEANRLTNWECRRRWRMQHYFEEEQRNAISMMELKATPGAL

% mCD45+ mNK1.1+ mNKP46+ cells [1] [%]	% mCD45+ mNK1.1+ mNKP46+ cells [2] [%]	% mCD45+ mNK1.1+ mNKP46+ cells [3] [%]	% mCD45+ mNK1.1+ mNKP46+ cells [4] [%]	% mCD45+ mNK1.1+ mNKP46+ cells [5] [%]	% mCD45+ mNK1.1+ mNKP46+ cells [6] [%]	% mCD45+ mNK1.1+ mNKP46+ cells [7] [%]	% mCD45+ mNK1.1+ mNKP46+ cells [8] [%]	% mCD45+ mNK1.1+ hNKP46+ cells [1] [%]	% mCD45+ mNK1.1+ hNKP46+ cells [2] [%]	% mCD45+ mNK1.1+ hNKP46+ cells [3] [%]	% mCD45+ mNK1.1+ hNKP46+ cells [9] [%]	% mCD45+ mNK1.1+ hNKP46+ cells [10] [%]	% mCD45+ mNK1.1+ hNKP46+ cells [6] [%]	% mCD45+ mNK1.1+ hNKP46+ cells [7] [%]	% mCD45+ mNK1.1+ hNKP46+ cells [8] [%]	Substance
2.81	0.009	0.035	4.33	3.44	3.96	4.21	2.25	–	–	–	–	–	–	–	–	APC anti-mouse CD335 (NKP46) Antibody (BioLegend, Catalog number: 137607)
–	–	–	–	–	–	–	–	0.034	3.55	2.79	4.95	4.08	0.056	0.14	0.11	PE anti-human CD335 (NKP46) Antibody (BioLegend, Catalog number: 331907)

From patent US20250143272A1
